Results as given in the supplement of paper PMC9876800.

Tested on: peptide library, one residue held at a place counted from the S/T acceptor
Experiment: relative phosphorylation of the sub-library (ratio to the mean residue at this position); higher = residue favoured
Outline: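 Relative sub-library phosphorylation is the ratio of each sub-library's signal to the mean residue at that position. The signal came from phosphorimaging of spots on streptavidin membranes, quantified by densitometry, after purified recombinant kinases reacted with biotinylated degenerate peptide sub-libraries in 384-well plates. Reactions held 50 μM peptide and 50 μM ATP spiked with γ-32P-ATP for 90 min under kinase-specific conditions.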

Chain of PRKDC, construct: Full length, human (P78527 whole entry, looked up): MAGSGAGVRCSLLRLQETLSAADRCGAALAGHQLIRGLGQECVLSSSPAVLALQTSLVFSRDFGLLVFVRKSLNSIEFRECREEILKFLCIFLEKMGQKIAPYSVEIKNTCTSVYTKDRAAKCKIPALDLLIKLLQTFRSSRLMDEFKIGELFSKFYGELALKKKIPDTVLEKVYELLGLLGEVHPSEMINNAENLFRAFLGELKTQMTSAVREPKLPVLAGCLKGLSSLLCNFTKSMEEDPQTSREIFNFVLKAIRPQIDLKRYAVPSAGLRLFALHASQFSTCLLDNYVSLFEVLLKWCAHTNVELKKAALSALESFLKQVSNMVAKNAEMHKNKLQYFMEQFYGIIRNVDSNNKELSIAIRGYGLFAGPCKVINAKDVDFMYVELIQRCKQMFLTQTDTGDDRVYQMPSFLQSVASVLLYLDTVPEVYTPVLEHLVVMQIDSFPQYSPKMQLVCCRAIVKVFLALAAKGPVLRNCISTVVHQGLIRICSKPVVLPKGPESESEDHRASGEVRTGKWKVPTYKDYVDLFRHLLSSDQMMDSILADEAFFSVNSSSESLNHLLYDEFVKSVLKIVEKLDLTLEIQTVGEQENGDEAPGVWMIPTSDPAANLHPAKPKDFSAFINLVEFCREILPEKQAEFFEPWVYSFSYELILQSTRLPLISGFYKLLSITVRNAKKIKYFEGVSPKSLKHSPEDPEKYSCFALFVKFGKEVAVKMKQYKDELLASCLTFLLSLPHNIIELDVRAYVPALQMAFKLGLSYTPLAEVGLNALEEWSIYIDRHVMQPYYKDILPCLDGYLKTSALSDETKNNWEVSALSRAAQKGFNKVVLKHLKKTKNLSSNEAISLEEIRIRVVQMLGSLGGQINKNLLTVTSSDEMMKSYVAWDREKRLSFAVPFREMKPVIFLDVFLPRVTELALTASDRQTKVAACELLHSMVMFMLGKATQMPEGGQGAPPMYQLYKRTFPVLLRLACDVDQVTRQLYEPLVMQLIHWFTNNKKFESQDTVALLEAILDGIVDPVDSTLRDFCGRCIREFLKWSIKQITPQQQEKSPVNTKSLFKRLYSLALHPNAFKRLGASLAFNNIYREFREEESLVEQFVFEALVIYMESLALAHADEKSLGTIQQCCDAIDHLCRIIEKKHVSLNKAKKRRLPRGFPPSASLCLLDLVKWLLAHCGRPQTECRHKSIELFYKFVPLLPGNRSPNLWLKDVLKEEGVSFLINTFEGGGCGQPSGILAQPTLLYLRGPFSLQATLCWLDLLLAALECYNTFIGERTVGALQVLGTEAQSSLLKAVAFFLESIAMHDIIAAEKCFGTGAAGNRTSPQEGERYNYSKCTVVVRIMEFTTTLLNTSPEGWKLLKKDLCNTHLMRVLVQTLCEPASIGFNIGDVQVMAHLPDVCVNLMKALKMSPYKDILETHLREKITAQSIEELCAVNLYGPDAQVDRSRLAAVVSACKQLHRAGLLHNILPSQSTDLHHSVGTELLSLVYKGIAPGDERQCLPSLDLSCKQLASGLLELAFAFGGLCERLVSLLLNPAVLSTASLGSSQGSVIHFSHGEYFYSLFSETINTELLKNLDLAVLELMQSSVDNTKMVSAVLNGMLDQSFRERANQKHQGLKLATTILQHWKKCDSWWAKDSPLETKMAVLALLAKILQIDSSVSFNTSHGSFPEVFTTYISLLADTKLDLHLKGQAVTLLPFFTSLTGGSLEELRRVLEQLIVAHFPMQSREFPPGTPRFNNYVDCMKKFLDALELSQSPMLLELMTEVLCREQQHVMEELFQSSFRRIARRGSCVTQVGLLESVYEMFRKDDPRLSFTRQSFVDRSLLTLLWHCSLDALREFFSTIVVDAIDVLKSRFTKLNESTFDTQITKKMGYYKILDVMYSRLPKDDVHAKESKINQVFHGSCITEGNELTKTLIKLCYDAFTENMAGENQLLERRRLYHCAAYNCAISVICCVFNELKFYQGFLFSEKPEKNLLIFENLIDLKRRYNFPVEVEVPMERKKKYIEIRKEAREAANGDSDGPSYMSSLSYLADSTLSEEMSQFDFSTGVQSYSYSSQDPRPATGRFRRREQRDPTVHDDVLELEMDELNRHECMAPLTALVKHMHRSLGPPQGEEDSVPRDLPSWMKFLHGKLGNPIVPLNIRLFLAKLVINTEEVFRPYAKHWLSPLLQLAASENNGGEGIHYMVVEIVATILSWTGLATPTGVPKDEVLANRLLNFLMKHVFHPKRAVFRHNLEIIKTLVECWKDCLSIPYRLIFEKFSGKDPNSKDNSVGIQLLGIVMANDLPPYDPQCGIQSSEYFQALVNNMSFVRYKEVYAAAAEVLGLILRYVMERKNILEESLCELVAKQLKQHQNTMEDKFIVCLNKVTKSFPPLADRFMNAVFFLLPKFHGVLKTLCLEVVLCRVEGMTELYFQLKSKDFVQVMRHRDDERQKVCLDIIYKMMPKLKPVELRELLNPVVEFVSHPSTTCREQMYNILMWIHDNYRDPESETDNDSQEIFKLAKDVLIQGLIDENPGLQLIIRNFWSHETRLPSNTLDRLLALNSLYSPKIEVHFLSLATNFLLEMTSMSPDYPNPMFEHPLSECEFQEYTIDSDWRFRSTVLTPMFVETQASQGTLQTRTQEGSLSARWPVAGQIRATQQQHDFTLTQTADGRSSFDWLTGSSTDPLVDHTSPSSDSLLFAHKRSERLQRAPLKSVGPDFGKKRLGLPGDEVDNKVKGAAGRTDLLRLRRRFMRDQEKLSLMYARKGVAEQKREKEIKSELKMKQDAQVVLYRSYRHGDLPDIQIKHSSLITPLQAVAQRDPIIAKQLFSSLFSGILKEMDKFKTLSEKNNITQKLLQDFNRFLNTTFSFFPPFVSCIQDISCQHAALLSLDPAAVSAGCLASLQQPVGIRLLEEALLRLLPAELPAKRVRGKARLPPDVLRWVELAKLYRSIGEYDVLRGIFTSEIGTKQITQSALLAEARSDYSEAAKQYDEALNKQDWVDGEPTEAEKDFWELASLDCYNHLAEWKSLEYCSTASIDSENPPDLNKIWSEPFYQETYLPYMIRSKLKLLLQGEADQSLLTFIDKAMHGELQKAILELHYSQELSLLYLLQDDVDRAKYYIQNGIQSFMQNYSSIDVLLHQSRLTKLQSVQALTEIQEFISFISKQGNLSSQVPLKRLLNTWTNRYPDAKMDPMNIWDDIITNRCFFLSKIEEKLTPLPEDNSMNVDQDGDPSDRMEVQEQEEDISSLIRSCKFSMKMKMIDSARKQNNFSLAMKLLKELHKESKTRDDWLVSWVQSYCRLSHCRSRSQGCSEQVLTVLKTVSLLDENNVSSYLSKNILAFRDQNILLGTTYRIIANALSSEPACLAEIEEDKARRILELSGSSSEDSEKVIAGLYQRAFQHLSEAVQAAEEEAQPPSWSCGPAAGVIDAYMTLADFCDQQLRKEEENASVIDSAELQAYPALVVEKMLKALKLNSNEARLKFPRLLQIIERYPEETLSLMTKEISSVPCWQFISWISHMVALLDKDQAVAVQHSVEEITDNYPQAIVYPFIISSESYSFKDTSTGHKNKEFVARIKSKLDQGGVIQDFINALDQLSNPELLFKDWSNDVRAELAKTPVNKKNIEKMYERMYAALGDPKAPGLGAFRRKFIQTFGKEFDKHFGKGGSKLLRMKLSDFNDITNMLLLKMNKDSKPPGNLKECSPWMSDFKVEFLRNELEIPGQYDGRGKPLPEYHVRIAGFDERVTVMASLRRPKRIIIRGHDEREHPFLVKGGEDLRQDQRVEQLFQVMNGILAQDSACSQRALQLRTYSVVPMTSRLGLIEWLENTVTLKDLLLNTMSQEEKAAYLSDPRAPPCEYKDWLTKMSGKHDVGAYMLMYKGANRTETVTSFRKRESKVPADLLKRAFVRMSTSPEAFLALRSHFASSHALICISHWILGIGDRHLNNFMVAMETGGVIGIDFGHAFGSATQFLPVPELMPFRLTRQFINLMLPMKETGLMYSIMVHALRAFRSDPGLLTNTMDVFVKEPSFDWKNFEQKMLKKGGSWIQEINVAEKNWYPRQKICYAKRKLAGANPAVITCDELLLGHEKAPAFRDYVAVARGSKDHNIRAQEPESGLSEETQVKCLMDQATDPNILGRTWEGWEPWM
Chain of PRKD2, construct: Full length, human (Q9BZL6 whole entry, looked up): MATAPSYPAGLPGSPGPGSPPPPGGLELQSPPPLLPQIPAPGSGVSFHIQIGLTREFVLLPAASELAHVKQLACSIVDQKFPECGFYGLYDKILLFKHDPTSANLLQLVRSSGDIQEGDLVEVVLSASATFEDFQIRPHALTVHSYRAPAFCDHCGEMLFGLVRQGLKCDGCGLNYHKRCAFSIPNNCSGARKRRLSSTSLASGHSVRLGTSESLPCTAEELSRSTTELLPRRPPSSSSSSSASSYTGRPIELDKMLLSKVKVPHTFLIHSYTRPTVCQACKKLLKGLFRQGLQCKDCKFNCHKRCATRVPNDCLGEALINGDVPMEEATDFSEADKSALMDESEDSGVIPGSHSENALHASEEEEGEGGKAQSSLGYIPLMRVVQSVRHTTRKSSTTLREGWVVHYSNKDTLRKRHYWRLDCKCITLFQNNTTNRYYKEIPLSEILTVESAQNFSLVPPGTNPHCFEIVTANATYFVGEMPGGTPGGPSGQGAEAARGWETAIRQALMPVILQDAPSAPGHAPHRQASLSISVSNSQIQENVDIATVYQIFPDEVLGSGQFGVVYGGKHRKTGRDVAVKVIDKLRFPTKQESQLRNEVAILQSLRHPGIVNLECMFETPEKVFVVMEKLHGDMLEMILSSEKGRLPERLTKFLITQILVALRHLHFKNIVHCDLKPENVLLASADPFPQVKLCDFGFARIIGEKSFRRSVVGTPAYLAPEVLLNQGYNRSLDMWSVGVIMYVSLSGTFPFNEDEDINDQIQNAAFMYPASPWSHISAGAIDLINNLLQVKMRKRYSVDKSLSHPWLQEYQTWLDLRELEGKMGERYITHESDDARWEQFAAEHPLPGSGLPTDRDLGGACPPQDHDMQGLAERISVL

PRKCI, construct: Full length, human (from UniProt P41743)
relative phosphorylation
Conditions	at +1	at +2	at +3	at +4	at -1	at -2	at -3	at -4	at -5
A fixed	0.617	0.488	0.873	0.871	1.13	0.692	0.835	1.12	1
D fixed	0.136	0.156	0.275	0.43	0.343	0.184	0.208	0.464	0.499
E fixed	0.134	0.152	0.277	0.378	0.317	0.197	0.23	0.464	0.425
F fixed	1.85	0.543	0.961	0.688	0.607	0.995	1.06	0.998	1.39
G fixed	0.617	0.557	0.946	1.07	1.4	0.883	0.846	1.04	1.02
H fixed	0.755	1.42	1.24	1.2	0.896	1.17	1.01	1.1	1.05
I fixed	1.34	0.654	0.855	0.926	0.35	0.447	0.543	0.782	0.792
K fixed	1.93	2.63	2.28	2.33	2.57	1.52	1.86	1.71	1.71
L fixed	1.18	0.538	0.882	0.716	0.617	0.601	0.745	0.761	1.13
M fixed	1.74	0.873	0.722	0.745	1.02	0.878	0.915	0.883	0.814
N fixed	0.58	0.59	0.598	0.765	0.921	0.768	0.579	0.899	0.771
P fixed	0.445	0.401	0.699	1.11	0.731	0.423	0.603	0.75	0.79
Q fixed	0.79	0.655	0.659	0.863	1.12	0.813	0.698	0.859	0.788
R fixed	2.23	5.01	2.67	2.07	2.73	4.2	4.14	1.78	1.76
V fixed	1.04	0.643	0.792	0.774	0.607	0.478	0.655	0.935	0.89
W fixed	0.696	0.658	1.14	1.14	0.637	1.02	1.01	1.53	1.22
Y fixed	0.92	1.04	1.15	0.923	0.993	1.73	1.06	0.926	0.948
pThr fixed	0.598	0.355	0.444	0.621	0.312	0.388	0.638	0.775	0.716
pTyr fixed	0.324	0.334	0.539	0.442	0.309	0.349	0.391	0.388	0.599

PRKD2, construct: Full length, human (from UniProt Q9BZL6)
relative phosphorylation
Conditions	at +1	at +2	at +3	at +4	at -1	at -2	at -3	at -4	at -5
A fixed	0.733	0.998	0.83	0.983	0.788	1.13	0.848	1.19	1.26
D fixed	0.55	1.02	0.913	1.22	0.704	0.232	0.153	0.433	0.319
E fixed	0.422	0.622	0.731	0.928	0.452	0.404	0.266	0.885	0.286
F fixed	0.883	0.718	0.749	0.907	0.592	0.592	0.345	0.718	0.788
G fixed	0.986	1.31	1.65	1.43	0.613	0.516	0.679	1.51	0.762
H fixed	0.977	1.06	1	1.15	1.03	0.838	0.658	0.963	0.517
I fixed	0.932	0.434	0.532	0.602	0.402	0.417	0.222	0.593	1.1
K fixed	1.22	1.07	1.11	1.14	2.6	2.73	2.59	1.86	0.788
L fixed	1.1	0.627	0.772	0.675	1.04	0.785	0.28	0.698	2.71
M fixed	1.12	0.71	0.656	0.732	0.886	1.62	0.424	1.13	0.752
N fixed	2.43	2.02	1.44	1.19	1.73	1.06	0.682	0.778	0.634
P fixed	0.399	1.89	2.6	1.42	1.49	0.415	0.992	0.512	1.35
Q fixed	1.42	1.3	1.09	1.28	0.993	2.09	0.981	1.4	1.02
R fixed	1.14	1.01	0.794	0.701	1.71	2.34	6.73	2.16	1.8
V fixed	0.902	0.49	0.592	0.756	0.571	0.73	0.265	0.714	1.62
W fixed	0.759	0.916	0.736	1.01	0.545	0.474	0.438	0.663	0.515
Y fixed	1.02	0.804	0.796	0.889	0.857	0.625	0.443	0.79	0.78
pThr fixed	0.67	0.623	0.888	0.916	0.194	0.233	0.213	0.628	0.39
pTyr fixed	0.699	0.574	0.946	0.864	0.781	0.31	0.215	0.523	0.775

PRKDC, construct: Full length, human (from UniProt P78527)
relative phosphorylation
Conditions	at +1	at +2	at +3	at +4	at -1	at -2	at -3	at -4	at -5
A fixed	0.244	1.11	0.987	0.798	1.14	1.28	1.11	0.908	1.01
D fixed	0.156	3.46	1.28	1.49	0.887	0.607	0.595	0.795	0.728
E fixed	0.145	2.46	1.6	1.57	1.08	0.733	0.681	0.895	0.773
F fixed	1.31	0.561	1.15	1.13	1.22	1.25	1.13	1.02	1.15
G fixed	0.222	0.753	0.712	0.971	2.01	1.28	1.11	1.35	1.13
H fixed	0.179	0.678	0.721	0.931	0.977	1.08	1.05	1.06	1.07
I fixed	0.705	0.41	0.935	0.728	0.352	0.969	1.08	1.07	1.03
K fixed	0.166	0.556	0.627	0.625	0.345	0.776	0.796	0.961	1.2
L fixed	2.21	0.558	0.943	0.715	0.87	0.831	1	0.953	0.957
M fixed	1.25	0.688	1.27	1.09	1.07	1.06	1.16	1.02	1.06
N fixed	0.407	0.879	0.7	0.902	1.25	1.25	0.829	0.829	0.879
P fixed	0.638	1.2	0.943	0.825	0.725	0.937	1.02	0.907	0.944
Q fixed	7.43	1	0.818	0.869	1.2	0.99	0.891	0.85	0.656
R fixed	0.362	0.725	0.623	0.88	0.686	1.13	1.12	1.17	1.21
V fixed	0.371	0.609	1.02	0.653	0.317	0.852	0.967	0.812	0.979
W fixed	0.309	0.656	1.36	1.6	0.835	0.916	1.16	1.18	1.11
Y fixed	0.892	0.702	1.31	1.22	2.04	1.06	1.3	1.22	1.11
pThr fixed	0.228	1.74	1.81	1.94	0.33	0.77	0.764	0.76	0.72
pTyr fixed	0.194	0.795	1.87	1.87	0.926	0.966	0.829	0.692	0.654
